Measured values reported in the supplement of paper PMC11502859.

test system: HEK293T; assay: median enrichment of reporter reads in eGFP-reduced (low/intermediate) vs eGFP-high sorted cells (eGFP-extension fusion abundance) (ratio); higher = stronger loss of eGFP-fusion protein abundance (more destabilising extension)
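Further: lentiviral eGFP-IRES-mCherry reporter pool sorted by FACS 96 h post-transduction, gated on mCherry-high cells, Illumina read counts normalized per million, median across four biological replicates.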

| Substance | median enrichment |
| --- | --- |
| LSPLFLPTLQGPHSPYPSVQCTREETLCL [IDH3B] | 7.06 |
| LSPLRNIINCRL [DKK2] | 8.81 |
| LSPQMGAEIFQSLEFFQ [ZNF112] | 0.686 |
| LSQTSFYIREPFQYSESETPA [ZNF12] | 3.12 |
| LSRL [ESM1] | 10.3 |
| LSRLCTQGPSLATSLPFCLTPGHPSSLPHAQLPESPLCLTSPSTNGTPEGL [CYP11B1] | 2.58 |
| LSRLLASMDFSRDVDIVLRVH [DIP2C] | 10.3 |
| LSRLW [CREG1] | 16.6 |
| LSSC [KRTAP13-1] | 0.413 |
| LSSQLPGPLP [COMMD9] | 0.399 |
| LSVCHR [DPYS] | 1.17 |
| LSVHWGPSVVPFVENLLHKALLNCLELGTSIPMETSPVWGTWRICQRLSDMGPWQFYTGKWSAPLGYTRLSVFSPSILFPLHM [NYNRIN] | 3.7 |
| LSYQTTY [USP51] | 1.11 |
| LTAPPPPLSPGPGG [VMO1] | 8.99 |
| LTATRMDTALAVPTLDRVSALLHTGGGAGAYSCSIKHPSYAPPQ [ACTL7A] | 9.25 |
| LTEPCWPAPTSLCSFLWFLLSFPTLRREIYFTALNSL [UBTD2] | 9.94 |
| LTEQLLMSGG [NDUFS5] | 5.57 |
| LTFQDEWFILSNLLLTEQSSEPFNFKLHQLCAEPWCKVLSHSFFLSVEFGAIVSGT [ATAD2B] | 6.97 |
| LTFSGNRADDYNIFFLMLTFLKIHIWDSYYQGSTYVNLQFMFQDICQMYYRCL [SUV39H2] | 10.1 |
| LTGLPTWLPT [AANAT] | 1.93 |
| LTHAHAPLTLKRIHNSLEKHPHVCCRTHSSQLRPIPVTTASPPTPVTTASPPTPVTTASPPTALSPRPMSACPRAQDFLTGMW [SSH3] | 3.55 |
| LTLLKTGQSLPLCTF [MYCN] | 15.2 |

| Substance | median enrichment |
| --- | --- |
| LTLQAGTVLLLSLQYIR [GTPBP2] | 9.07 |
| LTLTV [ABCB1] | 1.67 |
| LTQPRGGSLVFVLKFLVPNVFSSTFS [IL36G] | 15.7 |
| LTRKCCCPSSTLRPGAG [FCHO1] | 7.02 |
| LTSDRRSSLSSLSGSKMTRANGTKFESCQVNTWVLSMVTSICFVMCVLFQPEWEMLIQLLQAAQWGWWL [CFH] | 6.21 |
| LTSQST [ANGPT2] | 0.829 |
| LTSSLQRSESGGGSACREGLDLHIFSGVVRASPYLLLSPCEEDPDLASFPRRGWGVPRVPVLEGPPSPSLITVLFSAPPSAAR [ZNF646] | 4.64 |
| LTYFNYCIFISSFPNTNKIIL [DYNC2LI1] | 8.97 |
| LTYLGRLGK [APBB3] | 9.37 |
| LTYLSLSRSQAVRGNRSHLLSLQASVCLCLRTWILDFNDAVDNDGRKGVGC [MGA] | 8.5 |
| LVAPPHWTHGLAHASPLLPLPAIDNVAGTSASPLQPSNFPGTLLSAPEEGAVVSCCLWAPASSAVLGSVLLASVNNKATVCSG [MCM5] | 4.44 |
| LVARALGVLLEAPRASRIASQLPGQPTLLQPLTRTPVIRTGAPVPWSPPWAHVLTQAQQ [OVOL1] | 9.61 |
| LVC [SYT16] | 1.2 |
| LVCPLATDTVGNQTLSWSLLLAHSTSKWI [HIBADH] | 12.8 |
| LVGWLLVFVSFLSCLLLKGNQK [MYCT1] | 9.75 |
| LVISSVFCFLF [MS4A1] | 7.46 |
| LVLCS [PIGX] | 9.44 |
| LVLDKREAWKTPHASYHTSVLWLLSFEVLYCNLLICMECAYFLKGY [MED6] | 7.75 |
| LVLIPTFPCDLGCRCSCCKMEANLTGVL [ADD2] | 2.88 |
| LVLLVLLICRCHRTAVTRFLIVPAQPCPRTLGCMSHNMDPG [TREML4] | 3.13 |
| LVLRLRATPLPSACSFPGIFVSF [EPS15L1] | 18 |
| LVRGRGGAGTYLPESWRQNEALSIPGILLLLRADARPRASRDGVGEVLPTPLSSFPSSTKFPPALTE [SELENOM] | 4.2 |

| Substance | median enrichment |
| --- | --- |
| LVRIFNIFQKCIYIVLLCFFHCTL [SLC39A12] | 9.98 |
| LVRRLGAPPRLRPASISLLQWPAS [IRF8] | 7.26 |
| LVSCLKGGNRKSRLLSVKFVLPVCC [PCMTD2] | 7.69 |
| LVSLPLVSAWQPPPPTYHPSPITQVNVTNLPCLHINLYIFGCSPYLMAVIIYRYVYPCYLVVSFSRGGTVFYSSLCPLFLSSV [PGLYRP4] | 2.37 |
| LVSRPWGSCFPIPEFPCSPPPVVLPDLHLELSPPESPHRRPAMEPSPPGAPWGPSP [ALPG] | 10.3 |
| LVTGYVKSFNVVLKSKGLLITDSRIMCS [FEM1B] | 11 |
| LVVAGPGPRPCPGPDSLSHVPSPRLPRTLSLPRPQP [MAFB] | 9.74 |
| LVVDVWGI [XRCC5] | 4.14 |
| LVW [ZNF160] | 1.8 |
| LVWGPCQPAAPKPAPLPKQPRPLPLNPGPGRPGRPPVTAAAPALCRAALTCLPSQPLTSRLSLGQREPFGGAACLLWFWEG [FLNA] | 3.92 |
| LWAHHKDTSSLCRHHPAIESGGPCWSLWTYSSRPEKSLALELNSLDCTITTTYELRDYEGLFRGYESEPLFLEL [TMEM177] | 9.96 |
| LWDNHKVWKLGLK [BCO2] | 4.23 |
| LWLPRPGRLLDILFWLNIVLWMVPQSGARILPRRKATNGSGNYIKPETLQQGENCAPGCLAQASLEPSKHFCPS [MAB21L3] | 6.66 |
| LWLSCLQYLNFKSKSIY [IFNG] | 13.2 |
| LWRQALQGGPDPRVVLTVLTVYLSSPRENASFEHTVPTICIEQKDFCFTEDKRCFYFRPRREEFALNL [CNOT8] | 15.4 |
| LWRSLVRRQDFSGLCLNGPHLNFSPFFLFLALGKASFYQTYRERKLQG [CTCF] | 9.53 |
| LWRWWPRGGLLGGVGDKTGQTTGPPKTVKG [HS6ST1] | 11.4 |
| LYKKKYCPYQKQILLCTF [RHOT1] | 9.77 |
| LYPFPIHSQINYNGC [SCNM1] | 7.94 |
| LYRSRWFFTALDIIPFYHPFITPKVCLIASEVYKVV [PLPPR5] | 7.74 |
| LYVTVSCLSSSMYF [ARHGEF35] | 14.4 |
| MALAVRVVYCGA [Degron KLHDC2] | 5.57 |

| Substance | median enrichment |
| --- | --- |
| MGNYILLCQGQQTPAVKGIPSARRLFGACMFIAPARPDRGLLHKPCLVHFFTCKGTECGLRFGTRGGFGNYGAQVIILRSFIQ [AHNAK] | 9.08 |
| MLSESRNFPAQA [Degron KLHDC3] | 4.77 |
| MMM [Met03] | 0.831 |
| MMMM [Met04] | 1.4 |
| MMMMM [Met05] | 5.18 |
| MMMMMMM [Met07] | 6.53 |
| MMMMMMMM [Met08] | 8.55 |
| MMMMMMMMM [Met09] | 8.27 |
| MMMMMMMMMM [Met10] | 10.8 |
| NGPPLPPSPDAEMVMGSWRVGSEMKGTPQWAAGPIFPKPCHYLCEGGQVAEGSGCRLLYPLCLKHPPHRALVFTRFVLDSLNG [SLC13A5] | 4.2 |
| NLYSLESMSCVYSTIRNLILFLLLFLQKQKLILKSIIMGWGGGCPQDMQDFCRGQHRFWDCEAVSEGGQAVWMAGLMLFRIKC [SETD4] | 13.5 |
| NNN [Asn03] | 0.227 |
| NNNN [Asn04] | 0.299 |
| NNNNN [Asn05] | 0.217 |
| NNNNNN [Asn06] | 0.37 |
| NNNNNNN [Asn07] | 0.297 |
| NNNNNNNN [Asn08] | 0.184 |
| NNNNNNNNN [Asn09] | 0.367 |
| NNNNNNNNNN [Asn10] | 0.3 |
| NRRRRWRERQR [Degron FEM1C] | 21.1 |
